{"source": "patent US20100028995A1", "about": "“Tetranectin Trimerizing Polypeptides” (Anaphore, Inc., priority 2004, published 2010)", "key": {"[1]": {"experiment": "Pharmacokinetic analysis of trimeric IL1Ra proteins in male Lewis rats after i.v. injection (plasma ELISA)", "assay_type": "in vivo", "conditions": "for AUC / AUC protein/AUC KINERET ® / Half life / Half life protein/Half life KINERET ® / relative increase in AUC compared to KINERET: rat, in vivo, iv, 100 mg/kg; for half life after i.v. injection: single i.v. dose 100 mg/kg", "protocol": "The pharmacokinetic profile of these three constructs polypeptides were analysed in Lewis rats after intravenous (i.v.) injections. The profiles obtained were compared to the pharmacokinetic profile of KINERET® in the same experiment. The pharmacokinetic study was conducted using four male Lewis rats per group, and the constructs that were used were FL IL-1Ra, I10 IL-1Ra, V17 IL-1Ra and KINERET®, Single i.v. doses of 100 mg/kg were given to the animals. The test compound was dissolved in vehicle (4.4 mM NaCitrate, pH 6.5, 93.8 mM NaCl, 0.33 mM EDTA, 0.7 g TWEEN®-80) and administered through the tail vein (vena sacralis media) or the hind paw vein (vena saphena).\nBlood was then collected from four animals per time-point at baseline (zero hours) and 0.5, 1, 2, 4, 8, 12, 24, 48, 72 h post dosing. Blood samples of approximately 100 μl were collected from the tip of the tails in Microtainers™. Plasma was collected and transferred into polypropylene tubes. Plasma samples were then stored at <−70° C. until measurements were performed. Animals were then sacrificed by CO2 inhalation and the carcasses were discarded without pathological examination. The IL-1Ra compound levels and KINERET® levels in plasma were then determined by ELISA.\nThe average body weight of each rat was 250 grams. Assuming that the rat average blood volume was 16.5 mL a theoretical maximum initial concentration of the compounds of 1,500,000 ng/mL was calculated after i.v. injection. This starting level was used as starting value for the analysis. No observations of side effects or changes in animal well being were observed.\nFollowing blood sampling at the above indicated time points, an ELISA assay was used to measure the injected protein in the blood samples. Based on these ELISA results, area under the curve (AUC) was used as a measure of drug exposure and the plasma half life were calculated using standard software."}, "[2]": {"conditions": "in vivo; cited from earlier work"}, "STZ-induced diabetes": {"system": "STZ-induced diabetes", "experiment": "Streptozocin (STZ)-induced diabetes model", "assay_type": "in vivo, C57BL/6J male mice", "conditions": "for reduction of blood glucose levels: daily i.p. dosing at both 100 and 30 mg/kg, FIG. 12", "protocol": "STZ (Sigma Aldrich) was administered once daily for five successive days at 50 mg/kg i.p. to fasted C57BL/6J male mice. The mice gradually developed higher levels of blood glucose from Day 1 to Day 4. The levels rose from […] during the STZ induction period. Five days (Day 4) after the last STZ dosing, the mice were randomly distributed into 10 treatment groups each containing 10 mice in good condition. Treatment started on this day, before onset of diabetes and continued beyond the onset.\nThe study period was 28 days and the mice were weighed once weekly during the treatment period. Blood glucose levels were measured every other day during the study period in order to monitor development of diabetes. A droplet of whole blood was collected by tail vein bleeding and placed on an Ascensia ELITE® blood glucose test strip and analyzed with an Ascensia ELITE® blood glucose meter (Bayer). The values were recorded, and x-fold increase in any given group compared to levels at treatment initiation was calculated. Clinical symptoms were observed daily or as appropriate in groups where adverse symptoms occurred."}, "[3]": {"system": "type II collagen arthritis", "assay_type": "in vivo, Female Lewis rats", "protocol": "Female Lewis rats with 4-day established type II collagen arthritis were treated subcutaneously (SC), daily (QD) on arthritis days 1-3 with Vehicle (10 mM phosphate buffer pH 7.4), or equimolar amounts of IL-1ra administering either monomeric IL-1ra (100 mg/kg KINERET®), or trimerized IL1ra (120 mg/kg Met-I10-TripT-IL1ra, or 120 mg/kg GG-V17-TripT-IL1ra). In order to have only one set of controls, all rats in the QD groups were dosed with the respective vehicle (10 mM phosphate buffer pH 7.4, or sodium citrate buffer pH 6.5 for KINERET®) at the 2nd and 3rd dosings to keep manipulations constant. Animals were terminated on arthritis day 4. Efficacy evaluation was based on ankle caliper measurements, expressed as area under the curve (AUC), terminal hind paw weights and body weights (Bendele et al 2000, Arthritis+Rheumatism 43:2648-2659). All animals survived to study termination. […] No vocalization occurred with any other injections.\nAnimals (8/group for arthritis, 4/group for normal), housed 4/cage, were anesthetized with Isoflurane and received subcutaneous/intradermal (SC/ID) injections with 300 μl of Freund's Incomplete Adjuvant (Difco, Detroit, Mich.) containing 2 mg/ml bovine type II collagen (Elastin Products, Owensville, Mo.) at the base of the tail and 2 sites on the back on days 0 and 6. Dosing by subcutaneous route (QD at 24 hour intervals) was initiated on arthritis day 1 and continued through day 3.\nRats were weighed on days 0-4 of arthritis, and caliper measurements of ankles were taken every day beginning on day 0 of arthritis (study day 9). After final body weight measurement, animals were euthanized, and hind paws were transected at the level of the medial and lateral malleolus and weighed (paired)."}, "[4]": {"system": "IL-1 induction of IL-8 in U937 cells", "experiment": "Inhibition of IL-1 induction of IL-8 in U937 cells", "assay_type": "cell-based", "conditions": "based on several in vitro efficacy assays as well as Biacore assays", "protocol": "GG-TripV-IL-1ra (Trip V-IL1Ra), GG-TripK-IL-1ra (Trip K-IL1Ra), GG-TripT-IL-1ra (Trip T-IL1Ra) and CII-H6-GrB-GG-TripT-IL-1ra (Trip Q-IL1Ra) were further analysed for their ability to inhibit IL-1 induction of IL-8 in U937 cells.\nDue to buffer effects in the assay, at the highest protein concentration used (100 μg/mL) IL-8 production increases instead of further decreasing. Based on several in vitro efficacy assays as well as Biacore assays, it was determined that TripT IL1Ra was the best compound based on blocking and binding efficacy as well as production yields.\nThree of the trimeric IL1Ra polypeptides described in the previous examples were chosen for pharmacokinetic analysis. The differences in the constructs were in the N-terminus of the trimerization domain: full length (FL), first nine amino acids truncated (I10) and the first 16 amino acids truncated (V17). The 10 construct represents a naturally occurring deletion variant of the trimerization domain and lacks the O-glycosylation site at Thr 4. The V17 derivative represents a deletion of the first exon encoding the trimerization domain and lacks a characterized heparin binding site. This site is also partially removed in the I10 construct."}, "[5]": {"conditions": "SC QD days 1-3, 100 mg/kg KINERET, 120 mg/kg trimerized IL1ra, vs vehicle treated disease controls"}}, "data": [{"substance": "KINERET®: monomeric IL-1ra [reference compound]", "values": [{"measurement": "AUC", "setting": "[1]", "result": 428.414, "unit": "µg·h/mL"}, {"measurement": "AUC protein/AUC KINERET ®", "setting": "[1]", "result": 1}, {"measurement": "Half life", "setting": "[1]", "result": 1.2, "unit": "min"}, {"measurement": "Half life protein/Half life KINERET ®", "setting": "[1]", "result": 1}, {"measurement": "half life after i.v. injection", "setting": "[1]", "result": "about 1.2 minutes"}, {"measurement": "half life in humans", "setting": "[2]", "result": "240 to 360", "unit": "min"}, {"measurement": "reduction of blood glucose levels", "setting": "STZ-induced diabetes", "result": "marked reduction"}, {"measurement": "Change in body weight increased toward normal", "setting": "[3]; [5]", "result": 54, "unit": "%"}, {"measurement": "Reduction of ankle diameter AUC", "setting": "[3]; [5]", "result": 34, "unit": "%"}, {"measurement": "Reduction of final paw weight", "setting": "[3]; [5]", "result": 61, "unit": "%"}, {"measurement": "vocalization during the injection process (subcutaneous irritation)", "setting": "[3]; rat, in vivo, sc", "result": "vocalized during the injection process"}]}, {"substance": "I10 IL1Ra: trimeric IL1Ra polypeptide, first nine amino acids of the trimerization domain truncated (I10), TripT fusion (SEQ ID NO: 28)", "values": [{"measurement": "AUC", "setting": "[1]", "result": 1637.866, "unit": "µg·h/mL"}, {"measurement": "AUC protein/AUC KINERET ®", "setting": "[1]", "result": 3.82}, {"measurement": "Half life", "setting": "[1]", "result": 54, "unit": "min"}, {"measurement": "Half life protein/Half life KINERET ®", "setting": "[1]", "result": 45}, {"measurement": "reduction of blood glucose levels", "setting": "STZ-induced diabetes", "result": "marked reduction"}, {"measurement": "blood glucose efficacy relative to daily dosing of 100 mg/kg KINERET", "setting": "STZ-induced diabetes; twice weekly i.p. dosing of 100 mg/kg", "result": "equally effective"}]}, {"substance": "FL IL1Ra: trimeric IL1Ra polypeptide with full length (FL) trimerization domain, TripT fusion to IL-1Ra (SEQ ID NO: 24)", "values": [{"measurement": "AUC", "setting": "[1]", "result": 809.292, "unit": "µg·h/mL"}, {"measurement": "AUC protein/AUC KINERET ®", "setting": "[1]", "result": 1.89}, {"measurement": "Half life", "setting": "[1]", "result": 20, "unit": "min"}, {"measurement": "Half life protein/Half life KINERET ®", "setting": "[1]", "result": 17}, {"measurement": "relative increase in AUC compared to KINERET", "setting": "[1]", "result": "two-fold"}, {"measurement": "blocking and binding efficacy", "setting": "[4]", "result": "best compound"}]}, {"substance": "V17 IL1Ra: trimeric IL1Ra polypeptide, first 16 amino acids of the trimerization domain truncated (V17), TripT fusion (SEQ ID NO: 32)", "values": [{"measurement": "AUC", "setting": "[1]", "result": 2177.781, "unit": "µg·h/mL"}, {"measurement": "AUC protein/AUC KINERET ®", "setting": "[1]", "result": 5.08}, {"measurement": "Half life", "setting": "[1]", "result": 69, "unit": "min"}, {"measurement": "Half life protein/Half life KINERET ®", "setting": "[1]", "result": 58}, {"measurement": "relative increase in AUC compared to KINERET", "setting": "[1]", "result": "five-fold"}, {"measurement": "half life after i.v. injection", "setting": "[1]", "result": "about 69 minutes"}]}]}
